These results are taken from the supplement of paper PMC10567573.

± gives the standard deviation.

This data set is described as follows: protein stability index of a GFP-peptide fusion (GPS, HEK-293T) (PSI 1-6); higher = more stable.
[1] abbreviates: treatment: DMSO, c terminus: a fixed tail appended.
Setting [2] is: treatment: MLN4924 1 uM, 8 h, c terminus: a fixed tail appended.
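Also: 24-mer peptide tiles fused after GFP, lentivirally expressed, FACS-sorted into six equal bins by GFP/DsRed ratio, decoded by Illumina sequencing, PSI is the read-weighted mean bin number.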

For the sequence PPPPPSPSSLGPLLPLQREPLYNW [BTBD1], the protein stability index reads like this: under setting [1], 3.78 ± 0.15; under setting [2], 3.73 ± 0.25.
The matching figures for WHPAENIIAIAATNNLYIFQDKVN [PPP2R2C]: 2.6 ± 0.48 and 2.44 ± 0.31.
In the same order, the values of DNEYAYLKAIIFFDPDAKGLSDPG [HNF4A] are 1.92 ± 0.19 and 2.14 ± 0.092.
The matching figures for DPGLGEGPALWLRSTCVYVCALSA [PLEKHN1]: 2.55 ± 0.045 and 2.09 ± 0.38.
Consider IALVENIPEGLNYSENAPFHLSLF [PLD5], for which the protein stability index is 2.2 ± 0.83 under setting [1] and 2.25 ± 0.24 under setting [2].
The matching figures for NLEKQLICPICLEMFTKPVVILPC [TRIM55]: 2.41 ± 0.34 and 2.33 ± 0.22.
The matching figures for QELELVLMISENNFLFRNAASTLT [ANKRD40]: 2.91 ± 0.82 and 3.28 ± 0.74.
The matching figures for WEEAAPGRAVEHAMFLGDAAAHWY [MYORG]: 3.05 ± 0.47 and 3.15 ± 0.22.
In the case of FPLMTIEEFAAGPAQSGILSDREV [BTBD1], the protein stability index under setting [1] was determined as 3.83 ± 0.33 and the protein stability index under setting [2] was determined as 3.98 ± 0.18.
In the case of LAARRQWRDECLMRLAKLKSQVQP [CRYL1], the protein stability index worked out at 2.35 ± 0.36 under setting [1] and 2.52 ± 0.79 under setting [2].
Regarding TNFVVQVSVFIGVLIDLWKITKVM [CLPTM1], the protein stability index amounted to 3.1 ± 0.67 under setting [1] and 3.39 ± 0.72 under setting [2].
In the same order, the values of ITVTQSHLVIQNLFEGMIWFLVPI [CDS1] are 3.25 ± 0.45 and 3.24 ± 0.34.
The matching figures for GGAGKEGVRVNNRFELINIDDLED [TCF25]: 4.82 ± 0.49 and 4.91 ± 0.28.
Consider AEEKEQLLHNDEYQETMVESTFMY [USP39], for which the protein stability index was 4.69 ± 0.27 under setting [1] and 4.8 ± 0.2 under setting [2].
In the same order, the values of PVTNNLLEKCKTLVSQSNDLSSLR [SPACA9] are 3.04 ± 0.2 and 3.14 ± 0.24.
The matching figures for SRRFEAVGWWALLALVTLLSFATR [POMT2]: 2.29 ± 0.28 and 2.09 ± 0.33.
In the case of FQAPCQRCGKFLQDGLPPTWRDFR [MED27], the protein stability index runs as follows: under setting [1], 2.56 ± 0.72; under setting [2], 2.28 ± 0.33.
The matching figures for NGAGVTVLRREISELRTKVQEQQK [FBXO28]: 4.11 ± 0.23 and 4.21 ± 0.13.
The matching figures for LFGFSAVSIMYLVLVLAVQVHAWQ [JAGN1]: 3.8 ± 0.15 and 2.97 ± 0.39.
The matching figures for PFTVYQVRWLRPVHRQLGEANEEF [AUP1]: 2.43 ± 0.34 and 2.33 ± 0.32.
KMELGIDLLAYGAKAELPKYKSFN [MYOZ1]: the protein stability index by setting is: under setting [1], 2.59 ± 0.23; under setting [2], 2.77 ± 0.24.
On to NISHTKEKKKGKAKKKRLTKADIG [WASL], for which the protein stability index is 4.78 ± 0.23 under setting [1] and 4.81 ± 0.26 under setting [2].
The matching figures for AKQKLDFFIRTSDSFDKFDFCEPS [PCMTD2]: 2.87 ± 0.26 and 3.02 ± 0.47.
The sequence LNEDPLKWWSDRLALFPLLPKVLQ [ZBED1] yielded a protein stability index under setting [1] of 2.2 ± 0.25 and a protein stability index under setting [2] of 2.16 ± 0.1.
In the same order, the values of EKAFSYRQMAFDFARVKKGADGVM [SNAP91] are 2.67 ± 0.16 and 2.86 ± 0.31.
Turning to VDFSLSGRLLFAGYNDYTINVWDV [GNB5], the protein stability index reads like this: under setting [1], 3.23 ± 0.53; under setting [2], 2.58 ± 0.61.
In the same order, the values of SSYFDSFQEAQIKRKARNEGRNRR [CDKL4] are 3.93 ± 0.76 and 4.96 ± 0.35.
Turning to LIKKKKEELEAKRLQCPFEQELLR [FAM107A], the protein stability index stood at 3.66 ± 0.12 under setting [1] and 3.71 ± 0.15 under setting [2].
In the same order, the values of GEKPFTCHECGKKFSQNSHLIKHR [ZNF75A] are 3.44 ± 0.35 and 3.9 ± 0.56.
The matching figures for VPETIHDELQQSFQKSHNSLQRWE [PRIM1]: 3.88 ± 0.16 and 3.75 ± 0.24.
In the same order, the values of AGGSSGTTARERPCVRPGVSGSPV [FBF1] are 4.58 ± 0.16 and 4.47 ± 0.32.
Sequence AGQKRKHSEGRVEVYYDGQWGTVC [LOXL2] yielded a protein stability index under setting [1] of 2.87 ± 1.3 and a protein stability index under setting [2] of 3.35 ± 1.
Take HWALRVTPGLGVVAVLLLFLVVRE [SPNS1]: the protein stability index is 2.83 ± 0.47 under setting [1] and 2.79 ± 0.59 under setting [2].
In the same order, the values of ISNIDTTIEGTSDDLTVVDAASLR [MFF] are 5.09 ± 0.27 and 4.82 ± 0.56.
In the same order, the values of TLIVVDASGLGLEITTQFLIYASY [SLC19A2] are 3.32 ± 0.54 and 3.32 ± 0.4.
The matching figures for CLETLPEFRDDRDLVMALSAGGHG [KCNA4]: 3.68 ± 0.26 and 3.51 ± 0.34.
Turning to TPMATKRSGAGVALLNDHIYVVGG [KLHL12], the protein stability index by setting is: under setting [1], 2.91 ± 0.26; under setting [2], 2.71 ± 0.31.
In the same order, the values of TPYVRWNYVAKNFAQALGCVLYAC [SOAT2] are 2.7 ± 0.84 and 2.41 ± 0.34.
In the case of SMPCSTDKENGENVGLESKYLKKR [SASS6], the protein stability index by setting is: under setting [1], 4.62 ± 0.4; under setting [2], 5.08 ± 0.19.
As to RSVSEPRDQHPQPSLGDSLESIPS [RTN2], the protein stability index is, setting by setting: under setting [1], 5.34 ± 0.41; under setting [2], 5.17 ± 0.24.
RGSDLKVLEVTEESIDFDQGELAD [FBXO33]: the protein stability index was determined as 5.42 ± 0.14 under setting [1] and 5.519 ± 0.053 under setting [2].
The matching figures for DEELGGSSRVPVGGGPEATLSISD [ZBTB22]: 5.37 ± 0.18 and 5.42 ± 0.06.
The matching figures for ELGKGAFSVVRRCMKIPTGQEYAA [CAMK2D]: 2.46 ± 0.21 and 2.2 ± 0.29.
As to NKLQTLSPSHKGIAAPHAGANVKP [ZC2HC1A], the protein stability index runs as follows: under setting [1], 4.35 ± 0.16; under setting [2], 4.457 ± 0.035.
The matching figures for TAAMRCMCPLYDPNRQLWIELAPL [GAN]: 2.22 ± 0.51 and 2.16 ± 0.55.
The matching figures for TETDSLVSAQRERPRRRDGPEHAT [DVL3]: 5.24 ± 0.13 and 5.33 ± 0.3.
The matching figures for ELREACDYLCISFEYSTIKCRDLS [BTBD10]: 3.06 ± 0.21 and 3.13 ± 1.
Consider LTRPVPAGADLPPPKIRLKPHRLG [PWWP2B], for which the protein stability index by setting is: under setting [1], 3.91 ± 0.29; under setting [2], 3.73 ± 0.21.
In the same order, the values of LEMCVDARTFGNEARFIRRSCTPN [KMT2E] are 3.19 ± 0.21 and 3.13 ± 0.16.
Regarding SRISHLVLPVQPVSSIEEQGCLF [TOR1AIP2], the protein stability index is, setting by setting: (treatment: DMSO, c terminus: native) 2.63 ± 0.44; (treatment: MLN4924 1 uM, 8 h, c terminus: native) 2.62 ± 0.22.
LETEQGKPFVSVFRHLRLQYIISD [GMCL1]: the protein stability index runs as follows: under setting [1], 2.21 ± 0.56; under setting [2], 2.05 ± 0.33.
In the same order, the values of EHPNVVRLMDVCATSRTDREIKVT [CDK4] are 3.93 ± 0.36 and 4.14 ± 0.38.
The matching figures for PVKKQLQGASWELQSLRPHDEDIK [ZNF396]: 4.62 ± 0.21 and 4.72 ± 0.38.
As for VSKVVKGGSSGKGTTLRGRSDADL [OAS1], the protein stability index is, setting by setting: under setting [1], 4.36 ± 0.11; under setting [2], 4.48 ± 0.15.
TLWDVFGANKEVQELLERGLLQLD [RSAD1] yielded a protein stability index under setting [1] of 2.33 ± 0.25 and a protein stability index under setting [2] of 2.64 ± 0.11.
The matching figures for GRTCITDLQLTVGGAQASGTLIGV [MFSD9]: 2.33 ± 0.31 and 2.04 ± 0.3.
In the same order, the values of EFKADAQLLLHNTVIFYGADSEQA [ZMYND11] are 3.06 ± 0.32 and 3.32 ± 0.23.
The matching figures for VLIVDWDVHHGQGTQFTFDQDPSV [HDAC6]: 2.32 ± 0.42 and 2.13 ± 0.049.
With RYVEFNLLYDRGTKFGLFTPGSRI [CPOX], the protein stability index is, setting by setting: under setting [1], 2.52 ± 0.75; under setting [2], 2.26 ± 0.27.
In the same order, the values of KHSNSPPLVTPPQSPVSPQPPAIT [SMTNL2] are 4.82 ± 0.15 and 4.92 ± 0.15.
In the same order, the values of ALAREFSCPFFETSAAYRYYIDDV [RIT1] are 2.29 ± 0.13 and 2.08 ± 0.12.
The matching figures for EMEEELRYAPLSFRNPMMSKLRNY [VTI1B]: 2.78 ± 0.28 and 3.01 ± 0.25.
Consider QKRYHCKECGKVFSQSAGLIQHQR [ZSCAN9], for which the protein stability index reads like this: under setting [1], 3.3 ± 0.35; under setting [2], 3.63 ± 0.63.
In the same order, the values of LGCQGAQFVSSVPRCDLVDLGEGK [FAM189A2] are 4.31 ± 0.14 and 4.18 ± 0.13.
In the same order, the values of QEQRLGIRISMSHEEEPLGTAGPL [GMPPB] are 4.82 ± 0.21 and 4.79 ± 0.34.
The matching figures for STVTPVPGQEKGSALEGRADTTTG [EHMT1]: 5.51 ± 0.32 and 5.53 ± 0.24.
As for HLIRHQITHTREEQPHGRSRRREQ [ZNF8], the protein stability index by setting is: under setting [1], 4.57 ± 0.13; under setting [2], 4.75 ± 0.051.
The matching figures for KQQRNEVSFVIHNLPIIAKMAAVS [SEPHS2]: 2.51 ± 0.61 and 2.35 ± 0.36.
In the same order, the values of SDFQIEPGFYATYESTLFEDQVPA [MIA2] are 3.92 ± 0.27 and 3.7 ± 0.31.
In the same order, the values of FEGFQAVSLKQEGDDQPSETDHLS [TPRG1] are 5.51 ± 0.17 and 5.54 ± 0.23.
In the case of TCPQCHRSLILDDRGLRGFPKNRV [TRIM9], the protein stability index stood at 2.74 ± 0.22 under setting [1] and 3.16 ± 0.41 under setting [2].
As for TPMRVALAGTFHYYSCERAKKAMG [NSDHL], the protein stability index by setting is: under setting [1], 2.48 ± 0.5; under setting [2], 2.38 ± 0.16.
